The target of this assay is full-length UvsX (UvsX_(1–391)) (bacteriophage T4) (UniProt P04529). Put plainly: non-reducing SDS PAGE.

This passage reports ratio of dimers and monomers under oxidizing conditions and stoichiometry N results from article PMC3006652.

Turning to “full-length UvsX (UvsX_(1–391)) (from UniProt P04529 1-391) (natural protein)”, the ratio of dimers and monomers under oxidizing conditions stood at 0.5; the stoichiometry N amounted to 2.

A word on the stoichiometry N: it is the number of molecules, sites or subunits per partner or assembly.
